Laboratory results taken from patent publication US20250051445A1.

Key:
[1] = target: α/β TCR/CD3 complex on Jurkat, Clone E6-1 cells (human) (UniProt P07766); experiment: flow cytometry on Jurkat Clone E6-1 cells, Fab titration 10 µg/ml to 10 ng/ml; EC50 of MFI, fold decrease vs TPP-1374
[2] = target: α/β TCR/CD3 complex on Jurkat, Clone E6-1 cells (human) (UniProt P07766); experiment: flow cytometry on Jurkat Clone E6-1 cells, Fab titration 10 µg/ml to 10 ng/ml; AUC of MFI vs log concentration, gain vs TPP-1374

Chain of UniProt P07766 (P07766 23-207, chain 1 of 4): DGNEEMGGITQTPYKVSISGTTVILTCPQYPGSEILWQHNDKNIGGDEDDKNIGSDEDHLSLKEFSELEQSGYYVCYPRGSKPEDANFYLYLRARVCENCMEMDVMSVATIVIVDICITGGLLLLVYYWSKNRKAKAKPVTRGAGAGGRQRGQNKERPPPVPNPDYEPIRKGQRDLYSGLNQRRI
Chain of UniProt P07766 (P09693 23-182, chain 2 of 4, further chain): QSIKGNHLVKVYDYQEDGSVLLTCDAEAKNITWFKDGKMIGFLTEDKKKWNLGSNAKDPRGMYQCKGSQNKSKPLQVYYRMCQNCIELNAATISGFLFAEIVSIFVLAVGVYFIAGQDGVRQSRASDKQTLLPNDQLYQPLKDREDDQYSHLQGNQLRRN
Chain of UniProt P07766 (P04234 22-171, chain 3 of 4, further chain): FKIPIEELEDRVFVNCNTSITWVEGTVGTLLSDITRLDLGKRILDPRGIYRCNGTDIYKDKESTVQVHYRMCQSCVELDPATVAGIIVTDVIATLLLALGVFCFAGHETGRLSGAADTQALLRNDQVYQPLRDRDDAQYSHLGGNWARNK
Chain of UniProt P07766 (P20963 22-164, chain 4 of 4, further chain): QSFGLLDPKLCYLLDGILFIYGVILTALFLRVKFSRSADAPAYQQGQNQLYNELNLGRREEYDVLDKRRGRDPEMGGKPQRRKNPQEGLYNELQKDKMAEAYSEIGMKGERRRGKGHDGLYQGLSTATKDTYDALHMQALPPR

B1: TPP-1391 Fab fragment (Fab, V domains shown)
VH: EVQLVQSGAEVKKPGASVKVSCKASGYKFTSYVMHWVRQAPGQGLEWMGYINPYRDVTKYAEKFQGRVTLTSDTSTSTAYMELSSLRSEDTAVYYCARGSYYDYEGFVYWGQGTLVTVSS
VL: QIQMTQSPSSLSASVGDRVTITCSATSSVSYMHWYQQKPGKAPKRWIYDTSKLASGVPSRFSGSGSGTDYTLTISSLQPEDAATYYCQQWSSNPLTFGGGTKVEIKR
[1]
  fold decrease in EC50: 4.7 fold
[2]
  % gain in binding AUC: 245%

B2: TPP-1360 Fab fragment (Fab, V domains shown)
VH: EVQLVQSGAEVKKPGASVKVSCKASGYKFTRYVMHWVRQAPGQGLEWMGYINPYNDVTKYAEKFQGRVTLTSDTSTSTAYMELSSLRSEDTAVHYCARGSYYDYEGFVYWGQGTLVTVSS
VL: QIQMTQSPSSLSASVGDRVTITCSATSSVSYMHWYQQKPGKAPKRWIYDTSKLASGVPSRFSGSGSGTDYTLTISSLQPEDAATYYCQQWSSNPLTFGGGTKVEIKR
[1]
  fold decrease in EC50: 5.7 fold
[2]
  % gain in binding AUC: 144%

B3: TPP-1382 Fab fragment (Fab, V domains shown)
VH: EVQLVQSGAEVKKPGASVKVSCKASGYKFTSYVMHWVRQAPGQGLEWMGYINPYNDVTKYAEKFQGRVTLTSDTSTSTAYMELSSLRSEDTAVHYCARGSYYDYEGFVYWGQGTLVTVSS
VL: QIQMTQSPSSLSASVGDRVTITCSATSSVRYMHWYQQKPGKAPKRWIYDTSKLASGVPSRFSGSGSGTDYTLTISSLQPEDAATYYCQQWSSNPLTFGGGTKVEIKR
[2]
  % gain in binding AUC: -66%

B4: TPP-1381 Fab fragment (Fab, V domains shown)
VH: EVQLVQSGAEVKKPGASVKVSCKASGYKFTSYVMHWVRQAPGQGLEWMGYINPYKDVTKYAEKFQGRVTLTSDTSTSTAYMELSSLRSEDTAVHYCARGSYYDYEGFVYWGQGTLVTVSS
VL: QIQMTQSPSSLSASVGDRVTITCSATSSVSYMHWYQQKPGKAPKRWIYDTSKLASGVPSRFSGSGSGTDYTLTISSLQPEDAATYYCQQWSSNPLTFGGGTKVEIKR
[1]
  fold decrease in EC50: 8.2 fold
[2]
  % gain in binding AUC: 98%

B5: TPP-1372 Fab fragment (Fab, V domains shown)
VH: EVQLVQSGAEVKKPGASVKVSCKASGYKFTSYVMHWVRQAPGQGLEWMGYINPYKDVTKYAEKFQGRVTLTSDTSTSTAYMELSSLRSEDTAVYYCARGSYYDYEGFVYWGQGTLVTVSS
VL: QIQMTQSPSSLSASVGDRVTITCSATSSVSYMHWYQQKPGKAPKRWIYDTSKLARGVPSRFSGSGSGTDYTLTISSLQPEDAATYYCQQWSSNPLTFGGGTKVEIKR
[1]
  fold decrease in EC50: 21.5 fold
[2]
  % gain in binding AUC: 246%

B6: TPP-1384 Fab fragment (Fab, V domains shown)
VH: EVQLVQSGAEVKKPGASVKVSCKASGYKFTSYVMHWVRQAPGQGLEWMGYINPYNDVTKYAEKFQGRVTLTSDTSTSTAYMELSSLRSEDTAVHYCARGSYYDYEGFVYWGQGTLVTVSS
VL: QIQMTQSPSSLSASVGDRVTITCSATSSVSYMHWYQQKPGKAPKRWIYDTSKLAKGVPSRFSGSGSGTDYTLTISSLQPEDAATYYCQQWSSNPLTFGGGTKVEIKR
[1]
  fold decrease in EC50: 4.1 fold
[2]
  % gain in binding AUC: 203%

B7: TPP-1393 Fab fragment (Fab, V domains shown)
VH: EVQLVQSGAEVKKPGASVKVSCKASGYKFTSYVMHWVRQAPGQGLEWMGYINPYNDVTKYAEKFQGRVTLTSDTSTSTAYMELSSLRSEDTAVYYCARGSYYDYEGFVYWGQGTLVTVSS
VL: QIQMTQSPSSLSASVGDRVTITCSATSSVSYMHWYQQKPGKAPKRWIYDTSKLARGVPSRFSGSGSGTDYTLTISSLQPEDAATYYCQQWSSNPLTFGGGTKVEIKR
[1]
  fold decrease in EC50: 13.9 fold
[2]
  % gain in binding AUC: 226%

B8: TPP-1367 Fab fragment (Fab, V domains shown)
VH: EVQLVQSGAEVKKPGASVKVSCKASGYKFTSYVMHWVRQAPGQGLEWMGYINPYNDVTKYAEKFQGRVTLTSDTSTSTAYMELSSLRSEDTAVHYCARGSYYDYEGFVYWGQGTLVTVSS
VL: QIQMTQSPSSLSASVGDRVTITCSATSSVSYMHWYQQKPGKAPKRWIYDTSKLARGVPSRFSGSGSGTDYTLTISSLQPEDAATYYCQQWSSNPLTFGGGTKVEIKR
[1]
  fold decrease in EC50: 8.8 fold
[2]
  % gain in binding AUC: 220%

B9: TPP-1383 Fab fragment (Fab, V domains shown)
VH: EVQLVQSGAEVKKPGASVKVSCKASGYKFTSYVMHWVRQAPGQGLEWMGYINPYNDVTKYAEKFQGRVTLTSDTSTSTAYMELSSLRSEDTAVHYCARGSYYDYEGFVYWGQGTLVTVSS
VL: QIQMTQSPSSLSASVGDRVTITCSATSSVKYMHWYQQKPGKAPKRWIYDTSKLASGVPSRFSGSGSGTDYTLTISSLQPEDAATYYCQQWSSNPLTFGGGTKVEIKR
[2]
  % gain in binding AUC: -73%

B10: TPP-1363 Fab fragment (Fab, V domains shown)
VH: EVQLVQSGAEVKKPGASVKVSCKASGYKFTSYVMHWVRQAPGQGLEWMGYINPYKDVTKYAEKFQGRVTLTSDTSTSTAYMELSSLRSEDTAVYYCARGSYYDYEGFVYWGQGTLVTVSS
VL: QIQMTQSPSSLSASVGDRVTITCSATSSVSYMHWYQQKPGKAPKRWIYDTSKLASGVPSRFSGSGSGTDYTLTISSLQPEDAATYYCQQWSSNPLTFGGGTKVEIKR
[1]
  fold decrease in EC50: 7.3 fold
[2]
  % gain in binding AUC: 380%

B11: TPP-1389 Fab fragment (Fab, V domains shown)
VH: EVQLVQSGAEVKKPGASVKVSCKASGYKFTRYVMHWVRQAPGQGLEWMGYINPYNDVTKYAEKFQGRVTLTSDTSTSTAYMELSSLRSEDTAVYYCARGSYYDYEGFVYWGQGTLVTVSS
VL: QIQMTQSPSSLSASVGDRVTITCSATSSVSYMHWYQQKPGKAPKRWIYDTSKLARGVPSRFSGSGSGTDYTLTISSLQPEDAATYYCQQWSSNPLTFGGGTKVEIKR
[1]
  fold decrease in EC50: 31.8 fold
[2]
  % gain in binding AUC: 423%

B12: TPP-1379 Fab fragment (Fab, V domains shown)
VH: EVQLVQSGAEVKKPGASVKVSCKASGYKFTSYVMHWVRQAPGQGLEWMGYINPKNDVTKYAEKFQGRVTLTSDTSTSTAYMELSSLRSEDTAVHYCARGSYYDYEGFVYWGQGTLVTVSS
VL: QIQMTQSPSSLSASVGDRVTITCSATSSVSYMHWYQQKPGKAPKRWIYDTSKLASGVPSRFSGSGSGTDYTLTISSLQPEDAATYYCQQWSSNPLTFGGGTKVEIKR
[2]
  % gain in binding AUC: 1%

B13: TPP-1376 Fab fragment (Fab, V domains shown)
VH: EVQLVQSGAEVKKPGASVKVSCKASGYKFKSYVMHWVRQAPGQGLEWMGYINPYNDVTKYAEKFQGRVTLTSDTSTSTAYMELSSLRSEDTAVHYCARGSYYDYEGFVYWGQGTLVTVSS
VL: QIQMTQSPSSLSASVGDRVTITCSATSSVSYMHWYQQKPGKAPKRWIYDTSKLASGVPSRFSGSGSGTDYTLTISSLQPEDAATYYCQQWSSNPLTFGGGTKVEIKR
[1]
  fold decrease in EC50: 2.8 fold
[2]
  % gain in binding AUC: 83%

B14: TPP-1387 Fab fragment (Fab, V domains shown)
VH: EVQLVQSGAEVKKPGASVKVSCKASGYKFTSYVMHWVRQAPGQGLEWMGYINPYNDVTKYAEKFQGRVTLTSDTSTSTAYMELSSLRSEDTAVYYCARGSYYDYEGFVYWGQGTLVTVSS
VL: QIQMTQSPSSLSASVGDRVTITCSATSSVSYMHWYQQKPGKAPKRWIYDTSKLASGVPSRFSGSGSGTDYTLTISSLQPEDAATYYCQQWSSNPLTFGGGTKVEIKR
[1]
  fold decrease in EC50: 3.2 fold
[2]
  % gain in binding AUC: 14%

B15: TPP-1388 Fab fragment (Fab, V domains shown)
VH: EVQLVQSGAEVKKPGASVKVSCKASGYKFTRYVMHWVRQAPGQGLEWMGYINPYNDVTKYAEKFQGRVTLTSDTSTSTAYMELSSLRSEDTAVYYCARGSYYDYEGFVYWGQGTLVTVSS
VL: QIQMTQSPSSLSASVGDRVTITCSATSSVSYMHWYQQKPGKAPKRWIYDTSKLASGVPSRFSGSGSGTDYTLTISSLQPEDAATYYCQQWSSNPLTFGGGTKVEIKR
[1]
  fold decrease in EC50: 8.1 fold
[2]
  % gain in binding AUC: 273%

B16: TPP-1390 Fab fragment (Fab, V domains shown)
VH: EVQLVQSGAEVKKPGASVKVSCKASGYKFTSYVMHWVRQAPGQGLEWMGYINPRNDVTKYAEKFQGRVTLTSDTSTSTAYMELSSLRSEDTAVYYCARGSYYDYEGFVYWGQGTLVTVSS
VL: QIQMTQSPSSLSASVGDRVTITCSATSSVSYMHWYQQKPGKAPKRWIYDTSKLASGVPSRFSGSGSGTDYTLTISSLQPEDAATYYCQQWSSNPLTFGGGTKVEIKR
[1]
  fold decrease in EC50: 5.5 fold
[2]
  % gain in binding AUC: 270%

B17: TPP-1377 Fab fragment (Fab, V domains shown)
VH: EVQLVQSGAEVKKPGASVKVSCKASGYKFTKYVMHWVRQAPGQGLEWMGYINPYNDVTKYAEKFQGRVTLTSDTSTSTAYMELSSLRSEDTAVHYCARGSYYDYEGFVYWGQGTLVTVSS
VL: QIQMTQSPSSLSASVGDRVTITCSATSSVSYMHWYQQKPGKAPKRWIYDTSKLASGVPSRFSGSGSGTDYTLTISSLQPEDAATYYCQQWSSNPLTFGGGTKVEIKR
[1]
  fold decrease in EC50: 4.1 fold
[2]
  % gain in binding AUC: 56%

B18: TPP-1380 Fab fragment (Fab, V domains shown)
VH: EVQLVQSGAEVKKPGASVKVSCKASGYKFTSYVMHWVRQAPGQGLEWMGYINPYRDVTKYAEKFQGRVTLTSDTSTSTAYMELSSLRSEDTAVHYCARGSYYDYEGFVYWGQGTLVTVSS
VL: QIQMTQSPSSLSASVGDRVTITCSATSSVSYMHWYQQKPGKAPKRWIYDTSKLASGVPSRFSGSGSGTDYTLTISSLQPEDAATYYCQQWSSNPLTFGGGTKVEIKR
[1]
  fold decrease in EC50: 2.9 fold
[2]
  % gain in binding AUC: 18%

B19: TPP-1378 Fab fragment (Fab, V domains shown)
VH: EVQLVQSGAEVKKPGASVKVSCKASGYKFTSYVMHWVRQAPGQGLEWMGYINPRNDVTKYAEKFQGRVTLTSDTSTSTAYMELSSLRSEDTAVHYCARGSYYDYEGFVYWGQGTLVTVSS
VL: QIQMTQSPSSLSASVGDRVTITCSATSSVSYMHWYQQKPGKAPKRWIYDTSKLASGVPSRFSGSGSGTDYTLTISSLQPEDAATYYCQQWSSNPLTFGGGTKVEIKR
[2]
  % gain in binding AUC: 79%

B20: TPP-1392 Fab fragment (Fab, V domains shown)
VH: EVQLVQSGAEVKKPGASVKVSCKASGYKFTSYVMHWVRQAPGQGLEWMGYINPRNDVTKYAEKFQGRVTLTSDTSTSTAYMELSSLRSEDTAVYYCARGSYYDYEGFVYWGQGTLVTVSS
VL: QIQMTQSPSSLSASVGDRVTITCSATSSVSYMHWYQQKPGKAPKRWIYDTSKLARGVPSRFSGSGSGTDYTLTISSLQPEDAATYYCQQWSSNPLTFGGGTKVEIKR
[1]
  fold decrease in EC50: 16.6 fold
[2]
  % gain in binding AUC: 813%
